US9695426B2, “Biofuel production by recombinant microorganisms” (The Regents of the University of California, priority 2007, dated 2017)
Numbering of substitutions follows the chain as printed. In names and notes the source's numbering stands.

Experiments:
[1] = test system: wild-type E. coli strain (JCL16); assay: isobutanol tolerance of E. coli
Description: Non-native hosts such as E. coli lack tolerance to high alcohols. Isobutanol is as toxic as 1-butanol to microorganisms, and the native 1-butanol producers can tolerate 1-butanol concentration up to about 2%. To show the potential for improving tolerance, in vitro evolution by the sequential transfer of cultures was used to enrich for strains with mutations which increase isobutanol tolerance. […] Other strategies such as gTME can be used for further improvement of tolerance.

[2] = test system: JCL260; assay: α-keto acid production with IPMS variants; type: cell-based, E. coli
Protocol: All α-keto acid experiments were done under oxygen ‘rich’ conditions unless otherwise noted. For oxygen rich experiments, 10 mL cultures in 250 mL baffled shake flasks were inoculated 1% from 3 mL overnight cultures in LB. For oxygen poor experiments, 10 mL cultures were inoculated in 125 mL screw caps as previously described. All cultures were grown at 37° C. for 4 hours and induced with 1 mM IPTG and harvested after 18 hrs of growth at 30° C.
For other secreted metabolites, filtered supernatant was applied (20 ul) to an Agilent 1100 HPLC equipped with an auto-sampler (Agilent Technologies) and a BioRad (Biorad Laboratories, Hercules, Calif.) Aminex HPX87 column (5 mM H2SO4, 0.6 ml/min, column temperature at 65° C.). Glucose was detected with a refractive index detector, while organic acids were detected using a photodiode array detector at 210 nm. Concentrations were determined by extrapolation from standard curves.
In order to investigate this hypothesis, the production of the α-keto acid precursors, the substrates for kivd, to isobutanol and 3-methyl-1-butanol were examined. […] In hopes of increasing the KIC pool, the expression level of leuA was increased by changing the RBS from its native sequence to a more consensus sequence.
Isopropylmalate synthase (IPMS) catalyzes the condensation of KIV with acetyl-CoA. […] To relieve the feedback inhibition of the leuA gene product, two strategies were employed. A feedback insensitive mutant of IPMS (IPMS (G462D)) was employed. Second, the final step in the L-leucine synthesis pathway was inactivated by deleting ilvE (branched-chain amino acid transferase) and tyrB (tyrosine aminotransferase), two isozymes responsible for converting α-ketoisocaproate into L-leucine.

[3] = test system: JCL260; type: cell-based, E. coli; conditions: for 3-methyl-1-butanol final titer / isobutanol accumulation: ilvE+ tyrB+ background
Protocol: Final production experiments were conducted as previously described, except that 20 mL modified M9 media containing 5 g/L of glucose was used in a 250 mL screw cap flask.
Metabolite Detections. The produced alcohol compounds were quantified by a gas chromatograph (GC) equipped with flame ionization detector. The system consisted of model 5890A GC (Hewlett-Packard, Avondale, Pa.) and a model 7673A automatic injector, sampler and controller (Hewlett-Packard). Supernatant of culture broth ([…]) was injected in split injection mode (1:15 split ratio) using methanol as the internal standard.
The separation of alcohol compounds was carried out by A DB-WAX capillary column (30 m, 0.32 mm-i.d., 0.50 μm-film thickness) purchased from Agilent Technologies (Santa. Clara, Calif.). GC oven temperature was initially held at 40° C. for 5 min and raised with a gradient of 15° C./min until 120° C. It was then raised with a gradient 50° C./min until 230° C. and held for 4 min. Helium was used as the carrier gas with 9.3 psi inlet pressure. The injector and detector were maintained at 225° C. 0.5 ul supernatant of culture broth was injected in split injection mode with a 1:15 split ratio. Methanol was used as the internal standard.

[4] = test system: KS145; assay: 1-Propanol and 1-butanol production with the selected CimA mutants (citramalate pathway); type: cell-based, E. coli; conditions: ΔilvI ΔilvB strain with pSA63 and pSA55, after 64 hr
[5] = test system: KS145; assay: as above; type: cell-based, E. coli; conditions: 30° C. for 40 h
Protocol: Medium and cultivation for 1-propanol and 1-butanol production. M9 medium containing 36 g/L glucose, 5 g/L yeast extract, 100 μg/ml ampicillin, 30 μg/ml kanamycin and 1000th dilution of Trace Metal Mix A5 (2.86 g H3BO3, 1.81 g MnCl2.4H2O, 0.222 g ZnSO4.7H2O, 0.39 g Na2MoO4.2H2O, 0.079 g CuSO4.5H2O, 49.4 mg Co(NO3)2.6H2O per liter water) was used for cell growth. Preculture in test tubes containing 3 ml of medium was performed at 37° C. overnight on a rotary shaker (250 rpm). Overnight culture was diluted 1:100 into 20 ml of fresh medium in a 250 ml screw cap conical flask. Cells were grown at 37° C. for 3 hr, followed by adding 0.1 mM IPTG. Cultivation was performed at 30° C. on a rotary shaker (250 rpm). Gas chromatography-flame ionization detector and high-performance liquid chromatography analyses were performed.
The citramalate pathway was then used to enhance the production of 1-propanol and 1-butanol (FIG. 13). An E. coli strain (KS145) auxotrophic for L-isoleucine, leucine, and valine (ΔilvI and ΔilvB). was transformed with pSA63 (or other plasmids containing variants of cimA) and pSA55 (PLlacO1::kivd-ADH2). The deletions of ilvI and ilvB (FIG. 13) were introduced for two reasons. First, the deletions eliminated the native substrate, 2-ketoisovalerate, for the leuABCD pathway, thus reducing the competitive substrate inhibition. Second, these deletions eliminated the production of 2-keto-3-methyl-valerate and 2-keto-4-methyl-pentanoate, which are competing substrates for Kivd. The strain expressing the wild-type cimA gene (KS145/pSA63/pSA55) produced 302 mg/liter 1-propanol and 18 mg/liter 1-butanol after 40 h (FIG. 60). KS145 with pSA55 only, where Kivd utilizes endogenous 2-keto acids, produced 40 mg/liter 1-propanol and 10 mg/liter 1-butanol under the same condition. KS145 without pSA55 and pSA63 produced neither 1-propanol nor 1-butanol (FIG. 60). Note that the yeast extract was added to the medium to boost the cell density.
1-Propanol and 1-butanol production was tested with the selected CimA variants in KS145 by replacing pSA63 with corresponding plasmids (Table 19) containing various cimA mutants. […] The production of 1-propanol and 1-butanol from the strain with CimA2 increased 3.9- and 4.3-fold, respectively, compared to the strain with the wild-type CimA.

[6] = KS145 with pSA55 and pSA63 (cimA-leuABCD) or its variations
[7] = KS145 with pSA55 and pSA63 variations

CC(C)CO [isobutanol]
isobutanol concentration that inhibited the strain [1]: 1.5% | isobutanol concentration in the presence of which mutants grow ([1]; mutants after 5 rounds of culture transfers with increasing isobutanol concentrations): 2%

B1: IPMS (G462D): feedback insensitive mutant of isopropylmalate synthase (leuA gene product) (protein, UniProt P09151 2-523, looked up, variant G462D)
2-isopropylmalate synthase: SQQVIIFDTTLRDGEQALQASLSVKEKLQIALALERMGVDVMEVGFPVSSPGDFESVQTIARQVKNSRVCALARCVEKDIDVAAESLKVAEAFRIHTFIATSPMHIATKLRSTLDEVIERAIYMVKRARNYTDDVEFSCEDAGRTPIADLARVVEAAINAGATTINIPDTVGYTMPFEFAGIISGLYERVPNIDKAIISVHTHDDLGLAVGNSLAAVHAGARQVEGAMNGIGERAGNCSLEEVIMAIKVRKDILNVHTAINHQEIWRTSQLVSQICNMPIPANKAIVGSGAFAHSSGIHQDGVLKNRENYEIMTPESIGLNQIQLNLTSRSGRAAVKHRMDEMGYKESEYNLDNLYDAFLKLADKKGQVFDYDLEALAFIGKQQEEPEHFRLDYFSVQSGSNDIATAAVKLACGEEVKAEAANGNGPVDAVYQAINRITEYNVELVKYSLTAKGHGKDALDQVDIVANYNGRRFHGVGLATDIVESSAKAMVHVLNNIWRAAEVEKELQRKAQHNENNKETV
KIC final concentration [2]: 1.61 g/L | KIV accumulation ([2]; JCL260 background, ilvE+ tyrB+): 0.17 g/L | KIC production ([2]; ΔilvE background): 2.31 g/L | KIC production ([2]; ΔilvE ΔtyrB background): 1.95 g/L | 3-methyl-1-butanol final titer [3]: 459 mg/L | isobutanol accumulation [3]: 15 mg/L

B2: WT IPMS: wild-type isopropylmalate synthase, the E. coli leuA gene product (protein, UniProt P09151 2-523, looked up)
2-isopropylmalate synthase: B1 2-isopropylmalate synthase with D461G
KIC production ([2]; ΔilvE background): 0.53 g/L | KIV final concentration ([2]; ΔilvE background): 0.40 g/L | KIC production ([2]; ΔilvE ΔtyrB background): 1.23 g/L | KIV final concentration ([2]; ΔilvE ΔtyrB background): 0.37 g/L | 3-methyl-1-butanol final titer [3]: 308 mg/L | isobutanol accumulation [3]: 169 mg/L | 3-methyl-1-butanol final concentration ([3]; ΔilvE ΔtyrB strain): 553 mg/L | isobutanol ([3]; ΔilvE ΔtyrB strain): 42 mg/L

B3: WT: wild-type citramalate synthase CimA from M. jannaschii (SEQ ID NO:89) (protein, listed as Methanocaldococcus jannaschii)
chain: MMVRIFDTTLRDGEQTPGVSLTPNDKLEIAKKLDELGVDVIEAGSAITSKGEREGIKLITKEGLNAEICSFVRALPVDIDAALECDVDSVHLVVPTSPIHMKYKLRKTEDEVLETALKAVEYAKEHGLIVELSAEDATRSDVNFLIKLFNEGEKVGADRVCVCDTVGVLTPQKSQELFKKITENVNLPVSVHCHNDFGMATANTCSAVLGGAVQCHVTVNGIGERAGNASLEEVVAALKILYGYDTKIKMEKLYEVSRIVSRLMKLPVPPNKAIVGDNAFAHEAGIHVDGLIKNTETYEPIKPEMVGNRRRIILGKHSGRKALKYKLDLMGINVSDEQLNKIYERVKEFGDLGKYISDADLLAIVREVTGKLVEEKIKLDELTVVSGNKITPIASVKLHYKGEDITLIETAYGVGPVDAAINAVRKAISGVADIKLVEYRVEAIGGGTDALIEVVVKLRKGTEIVEVRKSDADIIRASVDAVMEGINMLLN
1-butanol produced [4]: about 21 mg/L | 1-propanol produced [4]: about 350 mg/L | Production of 1-Butanol [5, 6]: 18 mg/L | Production of 1-Propanol [5, 6]: 302 mg/L | 1-Butanol change (fold) relative to the strain containing wild-type CimA [5, 7]: 1 fold | 1-Propanol change (fold) relative to the strain containing wild-type CimA [5, 7]: 1 fold
